In one data set the test system is T1, TMR-KKKK-NH2 (synthetic).
T1 sequence: KKKK
Nature of the data set: FP. The following applies: 2 mM NaCl, pH 7.4.

The subject of data set [1] is T2, TMR-KRRR (C-terminal carboxylate) (synthetic).
T2 sequence: KRRR
As to the kind of experiment: FP. The settings on record: CITED (Xiong et al); pH 7.4; cited from earlier work.

Another data set concerns T3, TMR-RRRK-NH2 (synthetic).
T3 sequence: RRRK
Nature of the data set: FP. The settings on record: 2 mM NaCl, pH 7.4.

Data set [2] has as its system T4, TMR-(RL)4-NH2 (synthetic).
T4 sequence: RRRR
Nature of the data set: FP. The settings on record: 2 mM NaCl, pH 7.4.

In data set [3] the test system is T5, TMR-beta3(KRRR)-NH2 (synthetic).
T5 sequence: KRRR
Nature of the data set: FP. The following applies: 2 mM NaCl, pH 7.4.

A further data set relates to T6, TMR-KRRR-NH2 (synthetic).
T6 sequence: KRRR
Nature of the data set: FP. The settings on record: 2 mM NaCl, pH 7.4.

In data set [4] the test system is TMR-(RS)4-NH2 (synthetic). Nature of the data set: FP. The settings on record: 2 mM NaCl, pH 7.4.
The test system of data set [5] is T7, TMR-RRRR (C-terminal carboxylate) (synthetic).
T7 sequence: RRRR
Nature of the data set: FP. The following applies: CITED (Xiong et al); pH 7.4; cited from earlier work.

In data set [6] the test system is T8, TMR-beta3(RRRK)-NH2 (synthetic).
T8 sequence: RRRK
As to the kind of experiment: FP. The settings on record: 2 mM NaCl, pH 7.4.

Data set [7] concerns T9, TMR-(CH2)5-KRRR-NH2 (synthetic).
T9 sequence: KRRR
Nature of the data set: FP. The settings on record: 2 mM NaCl, pH 7.4.

Another data set deals with T10, TMR-RRRR-NH2 (synthetic).
T10 sequence: RRRR
Nature of the data set: FP. The following applies: 2 mM NaCl, pH 7.4.

The target of another data set is T11, KRRRC(-TMR)-NH2 (synthetic).
T11 chain: KRRRC(TMR(3))-NH2
As to the kind of experiment: FP; 2 mM NaCl, pH 7.4; text p253 states 46 ± 9. The settings on record: tags: TMR on Cys; free N-terminal amine; C-terminal amide.

Primed or numbered codes have the meaning given here. Ends that are not written are not given here. TMR(3) = tetramethylrhodamine (TMR) label conjugated to the Cys side chain

In general, Kd refers to the constant that tells how readily two partners part at equilibrium.

Regarding “GACGACTAGGACGACGACGAGGATGACGAC (double strand) [30-mer dsDNA]”, the dissociation constant (Kd) in the data set with TMR-KKKK-NH2 (synthetic) is 53 nM; in data set [1], 197 nM; with TMR-RRRK-NH2 (synthetic) it was 28 nM; in data set [2], 13 nM; in [3] it was 41 nM; with TMR-KRRR-NH2 (synthetic) it was 46 nM. Further, the Kd in data set [4] is 129 nM; in [5], 236 nM; in data set [6] it was 49 nM; in data set [7], 46 nM; with TMR-RRRR-NH2 (synthetic), 31 nM.

B1: 30-mer dsDNA (dsDNA)
DNA 1: GACGACTAGGACGACGACGAGGATGACGAC
DNA 2: GTCGTCATCCTCGTCGTCGTCCTAGTCGTC
In the data set with KRRRC(-TMR)-NH2, B1 yielded a Kd of 54 nM.
